± gives the standard deviation of the averaged measurements.
Tested on: ATP
Test: switch fluorescence ratio, 500 uM ATP over buffer (Cy3 cluster intensity, sum of 5 cycles each) (fold (ratio)); higher = stronger signal-on switching upon ATP binding; sequences stand for … in TCGTCGGCAGCGTCAGATGTGTATAAGAGACAGTTTTTTTTTTTTTTTTTTTTTTTTT…TC
Details: aptamer strand: ATP DNA aptamer (quencher-CACCTGGGGGAGTATTGCGGAGGAAGG + anchor), 100 nM annealed; ATP concentration: 500 uM
Procedure, shortened: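 The quencher-labelled ATP aptamer, at 100 nM, was annealed to Cy3-labelled switching-strand clusters on a modified Illumina MiSeq flow-cell. The clusters were imaged in selection buffer, then after 15 min with 500 uM ATP at 22 °C, and this buffer/ATP cycle ran five times with NaOH stripping and re-annealing between runs. Per-cluster fluorescence ratios, summed target-cycle over summed buffer-cycle Cy3 intensity, were averaged per switch-domain sequence. Clusters outside 100-1000 RFU were excluded.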
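Also: ATP exposure 15 min at 22 °C before imaging.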

Sequence | switch fluorescence ratio
CAAAGAGTAG | 1.002 ± 0.005
CAAAGTAAAA | 1.04 ± 0.054
CAAAGTTCGC | 0.9838 ± 0.0076
CAAATAGGCT | 0.984 ± 0.028
CAAATCAGTG | 1.002 ± 0.01
CAAATCGTCG | 0.957 ± 0.022
CAAATGGGAT | 0.9951 ± 0.0099
CAAATGGGCC | 0.993 ± 0.019
CAAATGGGTT | 1.01 ± 0.083
CAAATTGGAA | 0.961 ± 0.043
CAAATTTGC | 0.9315 ± 0.0035
CAAATTTGG | 1.05 ± 0.031
CAACAGAGTG | 1.07 ± 0.085
CAACATCACG | 1.52 ± 0.057
CAACATGATG | 0.995 ± 0.013
CAACATTTCA | 1.01 ± 0.022
CAACCAGTGT | 1.31 ± 0.026
CAACCGGCCA | 1.11 ± 0.027
CAACGTGTGG | 1.04 ± 0.072
CAACTCCGGA | 1.204 ± 0.0066
CAACTGCATA | 1.98 ± 0.063
CAACTGGTAT | 1.17 ± 0.26
CAAGAAGAGT | 1.01 ± 0.04
CAAGAAGATG | 0.9523 ± 0.0012
CAAGACAACT | 1.03 ± 0.033

Sequence | switch fluorescence ratio
CAAGACAGCT | 1.02 ± 0.031
CAAGATCATT | 1.008 ± 0.0036
CAAGATGGTC | 0.987 ± 0.051
CAAGATTGGA | 0.961 ± 0.025
CAAGATTGTG | 1.01 ± 0.017
CAAGCAAGAT | 2.58 ± 0.24
CAAGCATAGG | 1.07 ± 0.072
CAAGCGTCAC | 1.12 ± 0.019
CAAGCTCTGT | 1.01 ± 0.016
CAAGCTTTCG | 1.06 ± 0.048
CAAGGAAACG | 1.002 ± 0.0034
CAAGGACTGT | 1.05 ± 0.016
CAAGGAGATG | 1.01 ± 0.046
CAAGGAGGGG | 1.017 ± 0.0074
CAAGGATTAA | 1.006 ± 0.0012
CAAGGCTTGA | 0.974 ± 0.022
CAAGGGCGGC | 0.973 ± 0.012
CAAGGGGATT | 1 ± 0.027
CAAGGTAAGG | 0.984 ± 0.011
CAAGGTAGGG | 0.968 ± 0.019
CAAGGTGGTC | 0.995 ± 0.029
CAAGGTTATG | 0.974 ± 0.013
CAAGTAGCGA | 1.088 ± 0.0072
CAAGTAGGGA | 1.01 ± 0.057
CAAGTAGGGG | 0.9765 ± 0.0015

Sequence | switch fluorescence ratio
CAAGTTAATT | 0.987 ± 0.011
CAAGTTGTAC | 1.1 ± 0.019
CAAGTTTGTA | 0.997 ± 0.021
CAATAAAGGT | 1.08 ± 0.18
CAATAAGATT | 1.016 ± 0.0077
CAATAATATG | 0.993 ± 0.029
CAATAATTTA | 1.004 ± 0.0086
CAATACAGTC | 1.03 ± 0.011
CAATACTATA | 1.11 ± 0.067
CAATACTTAT | 1.01 ± 0.019
CAATAGATGT | 1.042 ± 0.0021
CAATAGGGCA | 0.943 ± 0.024
CAATAGTCAA | 1.05 ± 0.013
CAATATGAAT | 1.02 ± 0.0057
CAATATGATA | 1.003 ± 0.0011
CAATATTGCC | 1.02 ± 0.051
CAATCAATCG | 1.05 ± 0.017
CAATCAGGAC | 1.06 ± 0.041
CAATCTTGGG | 0.97144 ± 0.00089
CAATGATCAG | 1.006 ± 0.0081
CAATGATGAC | 1.01 ± 0.018
CAATGGATGA | 1 ± 0.015
CAATGGATTT | 1.026 ± 0.007
CAATGGCCGG | 1.02 ± 0.028
CAATGGCTTT | 0.9983 ± 0.0059

Sequence | switch fluorescence ratio
CAATGGGGAA | 1 ± 0.014
CAATGTGCAG | 0.98804 ± 5.9e-06
CAATTATTAG | 0.988 ± 0.017
CAATTCGAGC | 0.988 ± 0.015
CAATTCGCGA | 1.2 ± 0.034
CAATTCGTAA | 1.11 ± 0.018
CAATTCGTCT | 0.994 ± 0.075
CAATTGCCCA | 1.014 ± 0.0079
CAATTGTACT | 0.994 ± 0.013
CAATTTATAT | 0.994 ± 0.019
CAATTTGTGT | 0.983 ± 0.012
CAATTTTCTG | 0.985 ± 0.057
CAATTTTGTG | 0.9807 ± 0.007
CACAAGGTAT | 1.03 ± 0.033
CACAATTGGG | 1.01 ± 0.035
CACAGTTACC | 1.242 ± 0.0095
CACATACATT | 1.24 ± 0.067
CACATAGTTT | 1.03 ± 0.023
CACATTGACC | 1.1119 ± 7.1e-05
CACATTGTAG | 1.007 ± 0.0086
CACATTTTCA | 1.01 ± 0.027
CACCAAGGTT | 1.15 ± 0.088
CACCAGGAAT | 1.08 ± 0.021
CACCAGTGCT | 1.621 ± 0.0094
CACCCATTGC | 1.584 ± 0.0038

Sequence | switch fluorescence ratio
CACCGGGCCT | 1.02 ± 0.016
CACCGGGGTT | 1.01 ± 0.018
CACCTAGTTT | 1.01 ± 0.052
CACGAATGCT | 1.04 ± 0.019
CACGAGAAGT | 1.044 ± 0.0047
CACGCGGTGG | 1.02 ± 0.13
CACGCTAGTA | 1.04 ± 0.021
CACGCTTCCG | 1.07 ± 0.047
CACGGATGTT | 1.02 ± 0.093
CACGGTCTAA | 1.03 ± 0.043
CACGTAAACG | 1.0351 ± 9.7e-05
CACGTTACTG | 1.66 ± 0.12
CACTAGAGGT | 1.03 ± 0.06
CACTAGTTTT | 1.01 ± 0.012
CACTATGGGA | 1.02 ± 0.027
CACTATTAGT | 0.979 ± 0.01
CACTCAGGGA | 1.04 ± 0.046
CACTCATTGG | 1.039 ± 0.008
CACTCGAGTC | 0.978 ± 0.011
CACTCGGAAT | 1.19 ± 0.03
CACTCTCTGA | 0.969 ± 0.045
CACTGCGCGC | 1.11 ± 0.017
CACTGGAGAA | 1.044 ± 0.0051
CACTGGGCGA | 3.28 ± 3.2
CACTGGGGGC | 1.02 ± 0.036

Sequence | switch fluorescence ratio
CACTGGTGGC | 1.06 ± 0.022
CACTGTGTGG | 0.987 ± 0.042
CACTTAGGCT | 1.01 ± 0.011
CACTTATGTG | 0.99 ± 0.038
CACTTGGAGC | 0.944 ± 0.059
CACTTGTGAC | 1 ± 0.016
CACTTTCACA | 1.17 ± 0.055
CAGAAAAAAC | 1.05 ± 0.035
CAGAAAAGCA | 1.03 ± 0.017
CAGAAGCGGA | 1.19 ± 0.051
CAGAATTAA | 1 ± 0.037
CAGACGGTTT | 1.095 ± 0.0078
CAGACGTCGA | 1.05 ± 0.066
CAGAGATTAG | 0.996 ± 0.043
CAGAGATTTA | 0.995 ± 0.024
CAGAGGAAGT | 1.02 ± 0.04
CAGAGGAGTG | 0.9738 ± 0.0038
CAGAGGGAGG | 1.02 ± 0.033
CAGAGGGGGA | 1.04 ± 0.036
CAGAGGGGGC | 1.012 ± 0.0071
CAGAGTGGGA | 1.03 ± 0.016
CAGATAAGTG | 1.01 ± 0.068
CAGATACAAG | 1.036 ± 0.0095
CAGATAGGGG | 1.12 ± 0.19
CAGATGTACC | 1.08 ± 0.028

Sequence | switch fluorescence ratio
CAGATTGAAT | 0.982 ± 0.024
CAGATTTGTT | 0.992 ± 0.018
CAGATTTTGA | 0.9804 ± 0.0045
CAGCATAAAG | 1.02 ± 0.057
CAGCATCATC | 1.242 ± 0.011
CAGCCCTAGG | 1.09 ± 0.053
CAGCCTATGG | 0.991 ± 0.05
CAGCCTGCGG | 1.01 ± 0.029
CAGCGCCATA | 1.078 ± 0.0042
CAGCGCCGGG | 0.994 ± 0.017
CAGCGGGACC | 1.03 ± 0.025
CAGCGGGCGT | 0.963 ± 0.01
CAGCTAAAGG | 1.02 ± 0.03
CAGCTACGTG | 1.0258 ± 0.00037
CAGCTAGGTG | 1.54 ± 0.029
CAGCTATCTT | 1.039 ± 0.01
CAGCTCTAAG | 1 ± 0.013
CAGCTCTGTT | 0.984 ± 0.041
CAGCTGGCGC | 0.9949 ± 0.0083
CAGCTTGGGG | 1.019 ± 0.0089
CAGCTTGTTT | 1.01 ± 0.02
CAGCTTTAAT | 1.03 ± 0.02
CAGCTTTTGG | 0.993 ± 0.039
CAGGAAATTG | 1.02 ± 0.052
CAGGAAGCTG | 1.04 ± 0.11

Sequence | switch fluorescence ratio
CAGGAAGGGA | 0.9958 ± 0.0064
CAGGAAGGGG | 1 ± 0.032
CAGGACTTGT | 0.969 ± 0.02
CAGGACTTTT | 1 ± 0.0083
CAGGAGACTA | 0.9979 ± 0.0094
CAGGAGGGAG | 1.01 ± 0.011
CAGGAGGGCA | 1.042 ± 0.0049
CAGGATAACT | 1 ± 0.027
CAGGATGCGA | 1.05 ± 0.016
CAGGATGTAT | 0.9852 ± 0.0029
CAGGATTAAA | 0.959 ± 0.029
CAGGATTGTT | 1.02 ± 0.04
CAGGCCTCTT | 0.9943 ± 0.0035
CAGGCCTGAC | 1.02 ± 0.061
CAGGCGTTAG | 1 ± 0.064
CAGGCTCTTT | 0.978 ± 0.036
CAGGGAAAGA | 1 ± 0.011
CAGGGAAGGG | 1.01 ± 0.049
CAGGGATGGA | 0.981 ± 0.013
CAGGGCAGCG | 1.02 ± 0.04
CAGGGCGGGG | 0.979 ± 0.037
CAGGGCTATG | 1.01 ± 0.016
CAGGGCTTAG | 1.01 ± 0.035
CAGGGGAAAT | 0.993 ± 0.029
CAGGGGCAAT | 2.7 ± 0.12

— the supplement of paper PMC10126150
